T1: PDZRN3_1, Q9UPQ7
T1 sequence (Q9UPQ7 244-349, limits assumed, looked up): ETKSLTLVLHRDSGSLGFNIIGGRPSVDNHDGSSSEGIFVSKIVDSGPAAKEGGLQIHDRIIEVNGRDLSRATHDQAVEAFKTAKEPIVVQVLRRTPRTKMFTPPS

T2: LRRC7, Q96NW7
T2 sequence (Q96NW7 1440-1537, limits assumed, looked up): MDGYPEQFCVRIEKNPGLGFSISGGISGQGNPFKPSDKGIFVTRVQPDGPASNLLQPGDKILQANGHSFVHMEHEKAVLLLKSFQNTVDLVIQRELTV

T3: DFNB31_1, Q9P202
T3 sequence (Q9P202 135-233, limits assumed, looked up): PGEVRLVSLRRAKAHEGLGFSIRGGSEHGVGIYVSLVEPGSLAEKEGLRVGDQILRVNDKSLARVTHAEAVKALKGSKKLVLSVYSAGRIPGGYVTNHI

T4: LIN7A, O14910
T4 sequence (O14910 103-200, limits assumed, looked up): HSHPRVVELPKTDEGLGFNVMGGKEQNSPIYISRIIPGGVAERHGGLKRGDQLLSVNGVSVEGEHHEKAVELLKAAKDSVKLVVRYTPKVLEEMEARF

T5: RADIL, Q96JH8
T5 sequence (Q96JH8 971-1071, limits assumed, looked up): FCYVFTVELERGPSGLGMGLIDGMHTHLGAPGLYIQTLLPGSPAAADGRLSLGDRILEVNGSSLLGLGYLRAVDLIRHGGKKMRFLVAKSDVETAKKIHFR

T6: HTRA4, P83105
T6 sequence (P83105 378-476, limits assumed, looked up): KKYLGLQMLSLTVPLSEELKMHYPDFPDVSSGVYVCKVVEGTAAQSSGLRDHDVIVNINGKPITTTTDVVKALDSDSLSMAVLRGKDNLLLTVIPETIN

T7: NHERF3_4, Q5T2W1
T7 sequence (Q5T2W1 373-468, limits assumed, looked up): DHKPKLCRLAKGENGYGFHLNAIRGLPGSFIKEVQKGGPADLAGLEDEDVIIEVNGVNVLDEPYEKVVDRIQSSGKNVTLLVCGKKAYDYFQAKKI

T8: RHPN1, Q8TCX5
T8 sequence (Q8TCX5 508-602, limits assumed, looked up): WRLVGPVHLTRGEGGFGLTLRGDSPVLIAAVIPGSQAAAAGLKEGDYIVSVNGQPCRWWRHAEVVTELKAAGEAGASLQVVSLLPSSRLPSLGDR

T9: NHERF3_1, Q5T2W1
T9 sequence (Q5T2W1 4-100, limits assumed, looked up): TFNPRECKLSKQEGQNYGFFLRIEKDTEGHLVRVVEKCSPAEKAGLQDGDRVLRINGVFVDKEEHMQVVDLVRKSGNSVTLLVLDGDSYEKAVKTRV

T10: PCLO, Q9Y6V0
T10 sequence (Q9Y6V0 4491-4600, limits assumed, looked up): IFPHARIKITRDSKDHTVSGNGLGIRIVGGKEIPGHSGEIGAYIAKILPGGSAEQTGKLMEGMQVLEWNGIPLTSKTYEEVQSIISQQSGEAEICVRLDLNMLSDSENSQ

T11: GRIP1_3, Q9Y3R0
T11 sequence (Q9Y3R0 247-346, limits assumed, looked up): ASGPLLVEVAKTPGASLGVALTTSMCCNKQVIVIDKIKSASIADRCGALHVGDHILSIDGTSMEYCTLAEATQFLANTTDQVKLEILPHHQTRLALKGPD

T12: MPP7, Q5T2T1
T12 sequence (Q5T2T1 134-230, limits assumed, looked up): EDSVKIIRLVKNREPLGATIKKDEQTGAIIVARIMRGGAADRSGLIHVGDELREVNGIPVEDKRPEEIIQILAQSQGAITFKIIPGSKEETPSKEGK


Key:
Assay in all cases: holdup assay
Design in all cases: key: below the threshold = too weak to quantify, mostly under pKd 3.1 to 4
Settings in all cases: plain residues with an end cap or a label only (N-terminal biotin on a linker: ttds)
GRIP2_4, Q9C0E4 = biological target: GRIP2_4, Q9C0E4
Chain of GRIP2_4, Q9C0E4 (Q9C0E4 446-548): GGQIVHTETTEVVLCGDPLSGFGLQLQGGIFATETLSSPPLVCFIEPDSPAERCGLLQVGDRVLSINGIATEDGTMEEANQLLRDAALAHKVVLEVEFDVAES

PDZRN3_1, Q9UPQ7 = biological target: T1, PDZRN3_1, Q9UPQ7
PICK1, Q9NRD5 = biological target: PICK1, Q9NRD5
Chain of PICK1, Q9NRD5 (Q9NRD5 17-115): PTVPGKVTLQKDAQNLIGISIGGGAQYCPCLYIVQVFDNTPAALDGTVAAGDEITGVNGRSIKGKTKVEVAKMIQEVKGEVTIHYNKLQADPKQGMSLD

LRRC7, Q96NW7 = biological target: T2, LRRC7, Q96NW7
DFNB31_1, Q9P202 = biological target: T3, DFNB31_1, Q9P202
LIN7A, O14910 = biological target: T4, LIN7A, O14910
RADIL, Q96JH8 = biological target: T5, RADIL, Q96JH8
MAGI1_2, Q96QZ7 = biological target: MAGI1_2, Q96QZ7
Chain of MAGI1_2, Q96QZ7 (Q96QZ7 456-580): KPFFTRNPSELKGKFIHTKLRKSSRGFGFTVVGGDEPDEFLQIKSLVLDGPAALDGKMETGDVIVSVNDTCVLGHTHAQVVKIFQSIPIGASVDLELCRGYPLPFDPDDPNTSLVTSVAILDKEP

HTRA4, P83105 = biological target: T6, HTRA4, P83105
Inadl_5, Q8NI35 = biological target: Inadl_5, Q8NI35
Chain of Inadl_5, Q8NI35 (Q8NI35 673-780): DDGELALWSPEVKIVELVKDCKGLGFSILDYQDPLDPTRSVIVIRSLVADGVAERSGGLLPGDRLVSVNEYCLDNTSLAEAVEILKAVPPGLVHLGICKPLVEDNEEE

NHERF3_4, Q5T2W1 = biological target: T7, NHERF3_4, Q5T2W1
RHPN1, Q8TCX5 = biological target: T8, RHPN1, Q8TCX5
ARHGEF12, Q9NZN5-2 = biological target: ARHGEF12, Q9NZN5-2
Chain of ARHGEF12, Q9NZN5-2 (Q9NZN5 other isoform, or with tags, fused parts or gaps): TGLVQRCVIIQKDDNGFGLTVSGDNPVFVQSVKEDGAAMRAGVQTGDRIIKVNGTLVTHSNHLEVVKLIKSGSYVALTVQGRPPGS

PARD3_3, Q8TEW0 = biological target: PARD3_3, Q8TEW0
Chain of PARD3_3, Q8TEW0 (Q8TEW0 582-685): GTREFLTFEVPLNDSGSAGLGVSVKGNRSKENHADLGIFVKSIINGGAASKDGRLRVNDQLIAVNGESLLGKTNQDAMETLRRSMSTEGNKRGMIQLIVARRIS

IL16_1, Q14005 = biological target: IL16_1, Q14005
Chain of IL16_1, Q14005 (Q14005 210-306): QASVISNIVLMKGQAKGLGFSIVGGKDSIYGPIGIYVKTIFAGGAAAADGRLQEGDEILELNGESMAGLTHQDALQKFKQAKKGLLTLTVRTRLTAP

Inadl_2, Q8NI35 = biological target: Inadl_2, Q8NI35
Chain of Inadl_2, Q8NI35 (Q8NI35 238-335): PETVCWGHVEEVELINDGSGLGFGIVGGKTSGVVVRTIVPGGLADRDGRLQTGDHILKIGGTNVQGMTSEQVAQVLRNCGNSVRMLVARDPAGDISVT

NHERF3_1, Q5T2W1 = biological target: T9, NHERF3_1, Q5T2W1
PCLO, Q9Y6V0 = biological target: T10, PCLO, Q9Y6V0
GRIP1_3, Q9Y3R0 = biological target: T11, GRIP1_3, Q9Y3R0
DLG4_1, P78352 = biological target: DLG4_1, P78352
Chain of DLG4_1, P78352 (P78352 62-152): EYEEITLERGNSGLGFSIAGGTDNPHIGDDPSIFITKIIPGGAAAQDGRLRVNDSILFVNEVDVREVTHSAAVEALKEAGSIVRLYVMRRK

LAP2, Q96RT1 = biological target: LAP2, Q96RT1
Chain of LAP2, Q96RT1 (Q96RT1 other isoform, or with tags, fused parts or gaps): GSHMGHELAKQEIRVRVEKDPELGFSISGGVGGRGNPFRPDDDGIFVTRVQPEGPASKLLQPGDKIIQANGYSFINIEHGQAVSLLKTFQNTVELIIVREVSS

MAST2, Q6P0Q8 = biological target: MAST2, Q6P0Q8
Chain of MAST2, Q6P0Q8 (Q6P0Q8 1099-1202): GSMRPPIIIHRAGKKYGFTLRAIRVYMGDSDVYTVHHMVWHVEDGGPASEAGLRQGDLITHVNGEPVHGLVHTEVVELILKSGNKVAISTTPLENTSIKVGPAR

DLG1_2, Q12959 = biological target: DLG1_2, Q12959
Chain of DLG1_2, Q12959 (Q12959 314-412): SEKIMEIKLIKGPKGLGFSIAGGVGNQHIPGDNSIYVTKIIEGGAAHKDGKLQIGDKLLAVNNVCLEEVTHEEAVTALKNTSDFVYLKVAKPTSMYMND

MPP7, Q5T2T1 = biological target: T12, MPP7, Q5T2T1

Binder | pKd (GRIP2_4, Q9C0E4) | pKd (PDZRN3_1, Q9UPQ7) | pKd (PICK1, Q9NRD5) | pKd (LRRC7, Q96NW7) | pKd (DFNB31_1, Q9P202) | pKd (LIN7A, O14910) | pKd (RADIL, Q96JH8) | pKd (MAGI1_2, Q96QZ7) | pKd (HTRA4, P83105) | pKd (Inadl_5, Q8NI35) | pKd (NHERF3_4, Q5T2W1) | pKd (RHPN1, Q8TCX5) | pKd (ARHGEF12, Q9NZN5-2) | pKd (PARD3_3, Q8TEW0) | pKd (IL16_1, Q14005) | pKd (Inadl_2, Q8NI35) | pKd (NHERF3_1, Q5T2W1) | pKd (PCLO, Q9Y6V0) | pKd (GRIP1_3, Q9Y3R0) | pKd (DLG4_1, P78352) | other results
HIVEALETDV [PBK, Q96KB5] | below the threshold | below the threshold | below the threshold | 3.91 | 4.03 | below the threshold | below the threshold | below the threshold | below the threshold | below the threshold | below the threshold | 4.91 | 4.23 | 3.76 | 3.97 | below the threshold | below the threshold | below the threshold | below the threshold | 5.11 | pKd (LAP2, Q96RT1): 5.04; pKd (MAST2, Q6P0Q8): 5.71; pKd (DLG1_2, Q12959): 5.66; pKd (MPP7, Q5T2T1): below the threshold
SEKHFRETEV [HTLV1-TAX1, P03409] | below the threshold | 5.1 | below the threshold | 4.69 | 3.96 | 3.82 | below the threshold | 4.45 | below the threshold | below the threshold | below the threshold | 4.08 | 3.81 | 3.71 | 4.44 | below the threshold | 4.71 | below the threshold | below the threshold | 5.22 | pKd (LAP2, Q96RT1): 4.99; pKd (MAST2, Q6P0Q8): 5.42; pKd (DLG1_2, Q12959): 5.75; pKd (MPP7, Q5T2T1): below the threshold
VNKVWDQSSV [CIT, O14578] | below the threshold | 3.53 | below the threshold | below the threshold | 3.52 | below the threshold | below the threshold | below the threshold | below the threshold | below the threshold | below the threshold | 3.82 | below the threshold | below the threshold | 3.68 | below the threshold | below the threshold | below the threshold | below the threshold | below the threshold | pKd (LAP2, Q96RT1): 4.04; pKd (MAST2, Q6P0Q8): 5.14; pKd (DLG1_2, Q12959): 3.48; pKd (MPP7, Q5T2T1): below the threshold

From publication PMC9482650, “Quantitative fragmentomics allow affinity mapping of interactomes” (Nature Communications, 2022)
